{
  "source": "paper PMC5193325",
  "about": "“Cytochrome c Negatively Regulates NLRP3 Inflammasomes” (PLoS ONE, 2016)",
  "binders": {"B1": {"name": "cytochrome c, endogenous (natural protein)", "chain": "not shown", "notes": "cytochrome c, endogenous in PMA-differentiated, LPS-primed THP-1 cells; source: endogenous, lysate or cytosolic fraction of LPS-primed THP-1 macrophage cells"}},
  "biological_target": "T1, NLRP3 (NLR family, pyrin domain containing 3), endogenous (human (endogenous in THP-1), UniProt Q96P20 1-1036)",
  "T1 construct": "NLRP3, endogenous in PMA-differentiated, LPS-primed THP-1 cells; also called NLPR3; source: endogenous, lysate or cytosolic fraction of LPS-primed THP-1 macrophage cells",
  "T1 sequence (Q96P20 whole entry, the tested form may be a part)": "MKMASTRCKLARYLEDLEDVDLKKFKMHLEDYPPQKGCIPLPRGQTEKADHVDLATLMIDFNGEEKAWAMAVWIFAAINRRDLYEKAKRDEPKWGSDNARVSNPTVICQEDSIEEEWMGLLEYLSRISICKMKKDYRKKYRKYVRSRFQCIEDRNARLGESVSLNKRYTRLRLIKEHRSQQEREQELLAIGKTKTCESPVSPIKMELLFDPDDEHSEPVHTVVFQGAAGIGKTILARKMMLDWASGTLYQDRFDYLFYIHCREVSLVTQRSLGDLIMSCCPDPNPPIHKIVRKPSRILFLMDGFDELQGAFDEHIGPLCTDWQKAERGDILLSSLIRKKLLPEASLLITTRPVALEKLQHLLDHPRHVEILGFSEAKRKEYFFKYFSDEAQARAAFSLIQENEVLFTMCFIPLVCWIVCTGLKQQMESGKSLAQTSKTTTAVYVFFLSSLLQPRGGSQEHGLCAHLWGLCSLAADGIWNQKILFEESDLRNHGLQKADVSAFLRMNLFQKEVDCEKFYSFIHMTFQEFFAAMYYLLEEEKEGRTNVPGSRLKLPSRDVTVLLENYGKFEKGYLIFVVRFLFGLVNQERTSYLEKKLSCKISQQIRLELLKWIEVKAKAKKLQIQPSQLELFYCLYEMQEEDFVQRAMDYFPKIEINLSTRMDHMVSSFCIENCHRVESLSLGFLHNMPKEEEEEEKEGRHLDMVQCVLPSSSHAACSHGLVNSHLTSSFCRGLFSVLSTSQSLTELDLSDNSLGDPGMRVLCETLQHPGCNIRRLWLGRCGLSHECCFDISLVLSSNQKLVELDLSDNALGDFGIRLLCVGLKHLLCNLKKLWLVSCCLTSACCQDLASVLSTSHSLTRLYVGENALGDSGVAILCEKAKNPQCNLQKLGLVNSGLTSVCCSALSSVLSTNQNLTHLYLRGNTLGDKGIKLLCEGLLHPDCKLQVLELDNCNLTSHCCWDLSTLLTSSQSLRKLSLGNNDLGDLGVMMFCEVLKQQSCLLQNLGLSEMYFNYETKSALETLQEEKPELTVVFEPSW",
  "test": "co-IP; NLRP3 immunoprecipitated from lysates of LPS-primed THP-1 macrophage cells, stimulated with ATP (5 mM, 1 h) or not; immunoblot for cytochrome c; lysis buffer 20 mM HEPES pH 7.4, 0.5% Triton X-100, 0.5% CHAPS, 10% glycerol; 4°C",
  "conditions": "partners not purified",
  "data": [
    {"binder": "B1", "values": [
      {"measurement": "fold more cytochrome c co-precipitated with NLRP3 after ATP against no ATP", "value": "~3", "unit": "fold"}
    ]}
  ]
}
